Reference: IntAct's records for PubMed 15165234

B1: Nitrogen regulatory protein P-II (Synechococcus elongatus (strain PCC 7942)), P0A3F4 (parent)
chain: MKKIEAIIRPFKLDEVKIALVNAGIVGMTVSEVRGFGRQKGQTERYRGSEYTVEFLQKLKLEIVVEDAQVDTVIDKIVAAARTGEIGDGKIFVSPVDQTIRIRTGEKNADAI
partner: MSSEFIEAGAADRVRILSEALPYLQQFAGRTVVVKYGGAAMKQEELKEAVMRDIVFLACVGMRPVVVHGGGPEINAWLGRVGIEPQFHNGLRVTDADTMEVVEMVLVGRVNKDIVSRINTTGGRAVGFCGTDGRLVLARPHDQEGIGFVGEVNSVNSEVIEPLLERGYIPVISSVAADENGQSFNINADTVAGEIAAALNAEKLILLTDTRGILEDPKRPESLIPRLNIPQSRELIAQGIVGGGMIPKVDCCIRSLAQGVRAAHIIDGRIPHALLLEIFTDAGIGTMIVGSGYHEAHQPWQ

Variants of: B1
Settings: with argb_syne7 argB

| effect of a mutation on the interaction | Variant |
| --- | --- |
| decreasing interaction | S49A |
| decreasing interaction | S49E |
